Test results taken from the supplement of paper PMC7877785.
± gives the uncertainty stated by the source.

Assay: self-splicing fitness, log relative to wild type (ln ratio); higher = more splicing; Tetrahymena group I intron in knt gene, E. coli kanamycin selection, DiMSum; sequences stand for … in CUCUCU…GGAGGGAAAAGUUAUCAGGCAUGCACCUGGUAGCUAGUCUUUAAACCAAUAGAUUGCAUCGGUUUAAAAGGCAAGACCGUCAAAUUGCGGGAAAGGGGUCAACAGCCGUUCAGUACCAAGUCUCAGGGGAAACUUUGAGAUGGCCUUGCAAAGGGUAUGGUAAUAAGCUGACGGACAUGGUCCUAACCACGCAGCCAAGUCCUAAGUCAACAGAUCUUCUGUUGAUAUGGAUGCAGUUCACAGACUAAAUGUCGGUCGGGGAAGAUGUAUUCUUCUCAUAAGAUAUAGUCGGACCUCUCCUUAAUGGGAGCUAGCGGAUGAAGUGAUGCAACACUGGAGCCGCUGGGAACUAAUUUGUAUGCGAAAGUAUAUUGAUUAGUUUUGGAGUACUCGUGGUCG
Procedure, shortened: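 Fitness was computed with DiMSum as the error-weighted combination of replicate fold changes, kanamycin versus none, each normalised to wild type. The library randomised all eight intron nucleotides of the P1ex region, with the intron placed in the knt kanamycin-resistance gene on pET-22b(+) in E. coli BL21(DE3). Six replicate transformations were grown overnight at 37°C or 30°C on LB agar with or without 25 μg/mL kanamycin, plus 100 μg/mL carbenicillin, 50 μM IPTG and 0.2% rhamnose. Pooled colonies were amplicon-sequenced on an Illumina HiSeq 2500.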

Sequence | self-splicing fitness (ln) (30 °C) | self-splicing fitness (ln) (37 °C)
UAGAAGCAAUAUUACGUCAA | -2.08 ± 0.16 | -0.86 ± 0.12
ACGCAGCAAUAUUACGGCCA | -0.646 ± 0.092 | 0.161 ± 0.12
AAACAGCAAUAUUACGGGAG | -3.34 ± 0.13 | -2.66 ± 0.14
GGCCAGCAAUAUUACGUAGA | -1.59 ± 0.12 | -1.04 ± 0.15
CGUUAGCAAUAUUACGAGAA | -1.93 ± 0.49 | -1.45 ± 0.46
CAACAGCAAUAUUACGCUCG | -0.822 ± 0.072 | -0.727 ± 0.1
CGGGAGCAAUAUUACGGGGU | -2.03 ± 0.42 | –
UGUAAGCAAUAUUACGAUCA | 0.319 ± 0.079 | 0.535 ± 0.13
AAUCAGCAAUAUUACGGUAC | -0.714 ± 0.082 | -0.852 ± 0.1
AUAUAGCAAUAUUACGCAAG | -2.34 ± 0.22 | -0.955 ± 0.21
CACAAGCAAUAUUACGACCG | 0.562 ± 0.17 | 0.582 ± 0.2
CAGGAGCAAUAUUACGUGGA | -3.47 ± 0.2 | -3.3 ± 0.26
UCCCAGCAAUAUUACGAUAA | -2.32 ± 0.12 | -1.85 ± 0.14
UAUUAGCAAUAUUACGCCCG | 0.243 ± 0.36 | 1.09 ± 0.36
CCUUAGCAAUAUUACGCUGU | -3.42 ± 0.2 | -2.49 ± 0.19
AAUCAGCAAUAUUACGACGG | -1.73 ± 0.097 | -0.991 ± 0.13
ACGGAGCAAUAUUACGAUAU | -2.48 ± 0.21 | -2.12 ± 0.23

Sequence | self-splicing fitness (ln) (30 °C) | self-splicing fitness (ln) (37 °C)
UGCAAGCAAUAUUACGUCUC | -1.76 ± 0.12 | -2.67 ± 0.25
CGCGAGCAAUAUUACGCGUA | -2.59 ± 0.37 | -2.52 ± 0.28
CUGAAGCAAUAUUACGUUUG | -1.52 ± 0.061 | -1.23 ± 0.099
CGGAAGCAAUAUUACGCCCG | -2.86 ± 0.36 | –
GACCAGCAAUAUUACGCCCU | -0.482 ± 0.11 | -0.286 ± 0.12
CGCCAGCAAUAUUACGGCGU | -3.63 ± 0.46 | -2.17 ± 0.23
UGGAAGCAAUAUUACGGCAU | -1.94 ± 0.19 | -1.13 ± 0.19
AUUGAGCAAUAUUACGUGGC | -3.45 ± 0.16 | -3.69 ± 0.3
UGCUAGCAAUAUUACGAGAG | -2.79 ± 0.22 | -2.13 ± 0.23
CUACAGCAAUAUUACGGCUU | -2.38 ± 0.15 | –
CUCAAGCAAUAUUACGAAGU | -3.75 ± 0.2 | -2.36 ± 0.21
GUCAAGCAAUAUUACGAAAA | -1.95 ± 0.41 | -2.53 ± 0.31
CCCGAGCAAUAUUACGCAUG | -3.7 ± 0.15 | -2.64 ± 0.15
CCAAAGCAAUAUUACGCCAC | -3.59 ± 0.3 | -2.01 ± 0.47
CCCUAGCAAUAUUACGUGCC | -3.52 ± 0.22 | -2.2 ± 0.24
UGAGAGCAAUAUUACGCGUU | -3.23 ± 0.2 | -3.69 ± 0.34
UACUAGCAAUAUUACGAACU | -1.14 ± 0.21 | -1.51 ± 0.25
